Experimental data as given in the DeepSol protein solubility set.

experiment: soluble on expression in E. coli; label from the status in PepcDB or PDB records

Row | Sequence | soluble on expression in E. coli
1 | MNPIVINRLQRKLGYTFNHQELLQQALTHRSASSKHNERLEFLGDSILSYVIANALYHRFPRVDEGDMSRMRATLVRGNTLAELAREFELGECLRLGPGELKSGGFRRESILADTVEALIGGVFLDSDIQTVEKLILNWYQTRLDEISPGDKQKDPKTRLQEYLQGRHLPLPTYLVVQVRGEAHDQEFTIHCQVSGLSEPVVGTGSSRRKAEQAAAEQALKKLELE | soluble
2 | MNPNTVPTPARGAIRWEAHTCLPLLPNQDMSALLRYRDNGFHHVSVNVGMDMTAVGDVMQVIAGFRQWLIKHPENFMLAGTLADLQRARVQDKLAVSFDLEGSNMLLQDQAMVRLYADLGVRQMLLAYNLDNSCAGGCHGSGMGLTALGREFVGAINSAGIVMDCSHASKRASMEIIELSQRPVVFSHTNIKAVYDHPRTVDDEQIMACVESGGVIGLTGMGIFLGDPQASVEAFVRQIDYLAERAGTAHIGLGLDIELHPDDKDLAEGVNEDDWWPKEFYGGINGHRQLQPEALGQVAEALLRIGYDAAQINGIFGGNFMRVAQATWP | not soluble
3 | MNQCKVMNDGYLEKRSNGLLQLWKKKRCVLSDEGLRLYGCKGDSGKEMRFEQMTTLDCVEYKRGLVYFTIVMNDGKEVDFRCQQEGTAWNAEIALALVRFKNRVAVQTGRNRHLSHLGSCGEGDVEL | not soluble
4 | MNQWLKKKRESLGYTQESFAKEIGIAKTTYSSYEQGYRNPTVQTAKKMAKILQVPWTIFFDEEVLETYDF | not soluble
5 | MNQYLAVTSNGMENLLVEELTKLGIENAKPVQAGVKFKATNEQIYRCCLWSRLASRFVRVLSEFTCNDDMDLYLSTSSINWVNQFHSSKRFVVDFNGTNREIRNSQYGAMKVKDGIVDCFEKKGLPRPNISKERPDIRVHVRLHKDKAILGVDMVGSGLHQRGYRPESGRAPLRETLAAAIIMRCGWDGHQPLLDPMCGSGTLLIEAAMMAANMAPGVKRKQWCFESLEDFEPDTWAEIKSEANVQARRGVKKVDAKFFGFDNDPKVLKVAQENARRAGVEELIEFAQGDVATITRLSGFENGVIVSNPPYGERLGTEPGLIALYTAFGGQLKAEFGGCKASIFSSSDELLSCLRMRADKQFKLNNGALPCHQKNYSIAERSADEVKGADTNTQIAPDFSNRLKKNIGKIGKWARKEKLDCYRIYDADLPEYNVAIDVYGDQIVIQEYAAPKNIPEEKAKRRLTDIIRATIQVTGVEANKVVLKVREKQKGRSQYQK | not soluble
6 | MNRGSLYITATPIGNREDITLRAIDTLRSVDLIAAEDTRHSKKLLEHYGIKTPLLSLHEHNEAARATLLCEKLKQGLNVALISDAGTPLISDPGYRLVNAVREAGIEVVPIPGACAAIAALVASGLPTDRFIFEGFIPSKGEVRRKKLEDLKNQRRTIIFYESVHRIVNLIDLLNEIFGTERRATIARELTKKFETIHTATLAELKNWINENPVQEKGEFVVIVAGQTEKLTEINEEHQQLLTLLLSELSLKQAVSLATKISGLPRKKLYALALTIQQHLPHHRY | soluble
7 | MNRIEHYHDWLRDAHAMEKQAESMLESMASRIDNYPELRARIEQHLSETKNQIVQLETILDRNDISRSVIKDSMSKMAALGQSIGGIFPSDEIVKGSISGYVFEQFEIACYTSLLAAAKNAGDTASIPTIEAILNEEKQMADWLIQNIPQTTEKFLIRSETDGVEAKK | soluble
8 | MNRISTSSVNSSFSYSAPAEEAQNRVSSAPTNSSPPGTTTAVAQASEGQKKPGAVLSMQAQRLRQLCESSSYQYRQNALLAKSFDAQRLDINTQAGPSNSPHLNALNKLQQRDFKPAAGGLEIPFTPKSLLGGGKRVYQIGSSSRDVQVCPRGAGAALRQEIADKQLMVNHLTDELQDAIDEANQAEIANTSQQLRQARSDLAELQRRFAVLGNEDRRINQ | not soluble
9 | MNRLERIIQLVSQKKKIDVNSLSEQLDVSKVTIRKDLDKLESKGLLRREHGYAVLNSGDDLNVRLSYNYNIKRRIAEKAAELVQDNDTIMIESGSTCALLAEVLCQTKRNIKVITNSCFIANYIRQYSSCQIILLGGYYQPNSEVTVGPLLKEMISLFHVNRVFVGTDGFNKDLGFMGKDMMRSEGVRYMADAAEEVVILTDSSKFSKTSLVHQLSLADVNRVITDQALDKQTQELLSASGLVLDFVSLEHHHHHH | not soluble
10 | MNRSRLLLLGAEAVAQGAIDAGLSGVYAYPGTPSTEITEYIQRSAPARQSGIRSAWSANEKTAYEAALGMSYAGKRSLVCMKHVGLNVAADAFMNSAITGVNGGLVLAVADDPSMHSSQNEQDSRVYGRFAMVPVLEPASQQELYDAMFHAFELSEAVRLPVIMRMTTRLSHSRAGVELKASLEQNPLSAE | not soluble
11 | MNRVYCTARSFRTSVKSNGWVHKWSRFKRWQEMQAAHVENVQEKQRNKNFIRLPTGLYITPERPDDLNPKKAPADMTRKDTGQLPMELLTWHTQMRYVDHSIDNIKRYRRYKKFQHMQYDQRVIPERLLFLGPDLAAAHFLVHRGAAVKFVGDDNWYKKDKWNRYSLPGRKVDNLFIEAIDASGTQIMFEGLENLENLQKLRLLRLANSEYVDDWCIGRIGGLLPNLEMLDLSGCHRISSKGLMGLKASKNLKFLRLEGLSGIRNLGKSALILEDLLPKLQILGMDYELSFRQIEAENRLLEQERVVLDGRGNAFVEDDNSRLFLVMSTSSDDKAVTDDHDNPIMTSTVRREIPKMDDAEFEEINALSGGKLRHLLVGSPSGYEWTETTERILEHEAELNLTDNVITDPKMLPRGKRPEFELPEHRSRLEDAKAQFLKEFGDFEENSDKEQLKSH | not soluble
12 | MNSALDFAFPATFPVKSSSVGGHRIASPGFSSRLRLCSLPPSSSIKAESCLKRDVHRQRSSLESMFCYDKPIPEEIIEEPVGLSMSEREIGDNQRCTCCEAKGALLCSTCSGTGLYVDSIMESQGIIVKVRCLGCGGSGNIMCKLCGGRGHVGH | not soluble
13 | MNSFKKFLNKKRVQNHFKKSGEGVRLSSGESSSQPSAHAGAAQGGQIDRVAAADIAAQAAFKRMQKNEPQQNAGKRRIQMIAKRELEEERRQVEDLNISGTSSLQQPDREQHLEHSSAISRVLYTSELLGEHHIRSKADLLEDIKNFLSDQISEADDENDKVIAAVLMLYSLNKKHPKETAIETICKYCQNILEHPGEDKYKSIRLGNKAFQERVASVVGGRAFLEAVGFTEKSEGEDKFLVFTKPSDVHLVEALEALKDGQAVPIKVARNLEIFKLKEGQKPKAPKLADDFYNLSTAELKAEQRNKEMQVERMLTLRTKEMRQKDEQMTNYRYKYTLIRVRLPGNLLMQGVFGCHEPFSAVRVFVASTLSDALSTSEFTLRDAASQLVEDESASLAQLSLAPAALLHVVFAENLSDYGQIVADEHIEIIQELEASD | not soluble
14 | MNSGRPETMENLPALYTIFQGEVAMVTDYGAFIKIPGCRKQGLVHRTHMSSCRVDKPSEIVDVGDKVWVKLIGREMKNDRIKVSLSMKVVNQGTGKDLDPNNVIIE | soluble
15 | MNSNRTPSQKVLARQEKIKAVALELFLTKGYQETSLSDIIKLSGGSYSNIYDGFKSKEGLFFEILDDICKKHFHLIYSKTQEIKNGTLKEILTSFGLAFIEIFNQPEAVAFGKIIYSQVYDKDRHLANWIENNQQNFSYNILMGFFKQQNNSYMKKNAEKLAVLFCTMLKEPYHHLNVLINAPLKNKKEQKEHVEFVVNVFLNGINSSKA | soluble
16 | MNSPDRFRLTSCDVTPDRTGMFTAIWTCYGRLAPGWRVVFGIESGTDRLEIEAVADAGVCAPLPDGVADAWLICNGLLIAVLTPELGARLTGGSGYLRFSSSPPHDAVSSTPAHVHRAGIPPRG | not soluble
17 | MNSRIMFIGGVPGVGKTSISGYIARNTDIDIVLSSDYLREFLRPFAPQESHLETSVYDAWKFYGDMSDDNIIRGYLDQARPIMGGINRVIARALANGEDLIIESLYFVPDMMDEMVLKNAFLAYVYIDDPDLHRSRLEDRINYTHRNSPGSRLAAHLKEYRTIMDYSMDMARGRGIGLYSTDDYALARQRLLDDFRKFVDRR | not soluble
18 | MNSVGEACTDMKREYDQCFNRWFAEKFLKGDSSGDPCTDLFKRYQQCVQKAIKEKEIPIEGLEFMGHGKEKPENSSLEHHHHHH | not soluble
19 | MNTFVFLPLAFFVLLESFEAQEPPGPTARLNMLDNYMKRLNLTDIHFSDPGGIVKVDTVVNKYQPLTEEEIIRKMKKTVNDTAYDIANGKDPDLIEKLDKKTVQLPKPIRSRPQF | not soluble
20 | MNTGFANPSAKPDDPTDPRARRDHGGGLDGAMRRYGGQRADWIDLSTGINPLPYPVGTLLPEDWTALPDHGAFGELIRAARAFWHLPEAAAVLPAPGASALIARIPALADPARVRITQPTYNEHAAAFTAHGWQVVADGPAEARVIVHPNNPDGRIWSEAEAEGALCVIDESFGDVAPETSLAHLAARPGTVVLKSFGKFWGLAGLRLGFAVALPETIARLNDLTGPWAVSGPALRIGTRALSDTAWAEETRIRLAQEAARLDTLMSAGGVQVLGGTDLFRLYQVDDAAAWQDRLARARIWSRIFPYSDRFLRLGLPPAEGWDRLESAL | not soluble
21 | MNTPHPSAPVLVAVANPTIHPEALHIVAATGRECIDTTDPREISRHAHRVAAMLVDATTAPHMASLPPNTRVMYLEPEPGPIDYEKAMKSGAELAVIVPAQSPELLKALGRRDVAPRAGKYPVIAVIGAAGGAGTSTLCAALAADYREALLIDTEHFSGGIDLLLGKEDDPGIRWDDVPDSGEKVPASELLASLPCVDPNVRILAATRDSVTHVAEQQLRGVVESVRGTCPIIIDVQRHHVLFESCVDLADLVVLLVPAEIRSVAAAAQLVPWLRRRKVDVVGVLRERAWASVDREEVARVTGADIVATVPTVKGLPREVELGGMATIPRALRRPLAQLRSHIDG | not soluble
22 | MNTVRSEKDSMGAIDVPADKLWGAQTQRSLEHFRISTEKMPTSLIHALALTKRAAAKVNEDLGLLSEEKASAIRQAADEVLAGQHDDEFPLAIWQTGSGTQSNMNMNEVLANRASELLGGVRGMERKVHPNDDVNKSQSSNDVFPTAMHVAALLALRKQLIPQLKTLTQTLNEKSRAFADIVKIGRTHLQDATPLTLGQEISGWVAMLEHNLKHIEYSLPHVAELALGGTAVGTGLNTHPEYARRVADELAVITCAPFVTAPNKFEALATCDALVQAHGALKGLAASLMKIANDVRWLASGPRCGIGEISIPENEPGSSIMPGKVNPTQCEALTMLCCQVMGNDVAINMGGASGNFELNVFRPMVIHNFLQSVRLLADGMESFNKHCAVGIEPNRERINQLLNESLMLVTALNTHIGYDKAAEIAKKAHKEGLTLKAAALALGYLSEAEFDSWVRPEQMVGSMKAGRHHHHH | soluble
23 | MNVASRVVVNADRVKGTINRNIYGHFSEHLGRCIYEGLWVGEDSPIPNTNGIRNDVLEALKQMKIPVLRWPGGCFADEYHWKDGVGPREKRKRMVNTHWGGVIENNHFGTHEFMMLCELLGCEPYISGNVGSGTVQEMSEWVEYITFDGESPMANWRRENGREKPWRIKYWGVGNQNWGCGGNMRAEYYADLYRQFQTYLRNYGDNKLHKIACGANTADYHWTEVLMKQAAPFMHGLSLHYYTVPGPWEKKGPATGFTTDEWWVTLKKALFMDRLVTKHSAIMDVYDPDKRIDLIVDEWGTWYDVEPGTNPGFLYQQNSIRDALVAGATLHIFHRHCDRVRMANIAQLVNVLQSVILTEGERMLLTPTYHVFNMFKVHQDAELLDTWESVERTGPEGELPKVSVSASRAADGKIHISLCNLDFETGASVDIELRGLNGGVSATGTTLTSGRIDGHNTFDEPERVKPAPFRDFKLEGGHLNASLPPMSVTVLELTAG | soluble
24 | MNVCRLYGEELQKSQSNTFEDYFNRSEVTYRDGGEERTLSVLYLRHFEAALLDWLPYESDPLFTANGRDIHLRDIIALVCLWKNPAYRQRKRVYIHDEEELRRYFAEVDAKTLQALVSEWAETGECRLPERSA | not soluble
